Results on one protein are retold here after patent US8470587B2, “129Xe biosensors and their use” (The Trustees of the University of Pennsylvania, priority 2006, dated 2013).

The target in series [1] is T1, azidopeptide N3-CH2CH2-CONH2-RKRPLALWRSRK
T1 chain: RKRPLALWRSRK

The target of series [2] is T2, MMP-7-responsive 129Xe biosensor I (monopropargyl-cryptophane-A coupled to azidopeptide RKRPLALWRSRK).
T2 chain: RKRPLALWRSRK

Substrate in series [3]: CC(C)C[C@H](NC(=O)[C@H](C)NC(=O)[C@H](CC(C)C)NC(=O)[C@@H]1CCCN1C(=O)[C@H](CCCNC(=N)N)NC(=O)[C@H](CCCCN)NC(=O)[C@H](CCCNC(=N)N)NC(=O)CCN=[N+]=[N-])C(=O)N[C@@H](Cc1c[nH]c2ccccc12)C(=O)N[C@@H](CCCNC(=N)N)C(=O)N[C@@H](CO)C(=O)N[C@@H](CCCNC(=N)N)C(=O)N[C@@H](CCCCN)C(=O)O
As to the kind of experiment: MMP-7 enzyme kinetic parameters, Michaelis-Menten fit of initial velocities. It counts as biochemical. The conditions noted are these: other: MMP-7 42 nM, 298 K, standard buffer. The method, then:
At rt, an aliquot (2 μL) of active MMP-7 (0.454 μg/μL) was added into 0.998 mL of a freshly prepared solution of biosensor I at a known concentration in standard buffer. The extinction coefficient of I, ε=15,000 M^−1 cm^−1 at 280 nm in water, was determined from a solution containing the weighed sample. At approximately 3 min intervals, 70 μL aliquots were removed from the reaction mixture and immediately quenched with 30 μL of a 40 mM EDTA solution. Each aliquot was analyzed by HPLC with the gradient: time 0, A/B=75/25; 0-30 min, linear increase to A/B=45/55; 30-32 min, linear change to A/B=20/80; 32-42 min, A/B=20/80. The retention times for I and II were 15.6 min and 17.9 min, respectively. The enzyme activity was determined from the initial rate of increase in the concentration of cleaved sensor II, during the consumption of the first 10-15% of substrate I. The absorbance at 280 nm of the growing peak at 17.9 min was integrated and compared for each time point. Initial velocities were measured at substrate I concentrations of 6, 16, 28, 38, 48, 74 and 100 μM.
The kcat/KM value for all peptide substrates was calculated based on the Michaelis-Menten equation (Equation 1) after fitting the activity data at varying substrate concentrations with a non-linear regression curve: […]
For the azidopeptide substrate 1, enzyme activity was determined similarly by HPLC with the gradient: time 0, A/B=90/10; 0-30 min, linear increase to A/B=60/40; 30-32 min, linear change to A/B=20/80; 32-42 min, A/B=20/80. Peak areas were monitored for the intact substrate 1 and cleaved hexapeptide product 3 at retention times of 17.0 and 10.3 min, respectively. Initial velocities were measured at substrate 1 concentrations of 6, 50, 100, and 870 μM.
For the fluorometric enzymatic assay, an aliquot (2 μL) of active MMP-7 (0.454 μg/μL) was added into 0.998 mL solution of ^129Xe biosensor I with known concentration at 298 K. Fluorescence spectra were collected from 310-450 nm. […]

B1: MMP-7 (Homo sapiens) (protein)
chain: YSLFPNSPKWTSKVVTYRIVSYTRDLPHITVDRLVSKALNMWGKEIPLHFRKVVWGTADIMIGFARGAHGDSYPFDGPGNTLAHAFAPGTGLGGDAHFDEDERWTDGSSLGINFLYAATHELGHSLGMGHSSDPNAVMYPTYGNGDPQNFKLSQDDIKGIQKLYGKRSNSRKK
notes: BIOMOL International LP, MMP-7 (recombinant, catalytic domain); purchased BIOMOL International LP
On to B1, for which, in series [1], the KM came to 150 µM, the maximum rate (Vmax) is 4.7e-08 M/s and the specificity constant (kcat/KM) was 7300 M⁻¹ s⁻¹. In series [2], the Michaelis-Menten constant (KM) was 43 µM; the maximum rate (Vmax) is 1.3e-08 M/s; the “initial velocity v of proteolysis of biosensor I by MMP-7 (42 nM), fluorometric assay, 298 K; shown without a printed number” value is “v rises with [Biosensor I] from about 1 nM s-1 at about 6 µM to about 8-9 nM s-1 at 74-100 µM; the Michaelis-Menten fit line is still rising at 100 µM, no upper plateau inside the range”; the catalytic efficiency (kcat/KM) amounted to 7200 M⁻¹ s⁻¹. Also, in series [3], the Km was determined as 150 µM, the Vmax worked out at 2.82 µM/min and the kcat/Km is 7300 M⁻¹ s⁻¹.
